This assay has as its target T1, JNKK2/MKK7 (Homo sapiens, UniProt O14733, Q133P/Q94H).
T1 construct: expressed in transfected cells; host or cells: HEK-293, TNFα-treated or untreated; anti-FLAG immunoprecipitate
T1 sequence (O14733 1-401 Q94H/Q133P limits assumed): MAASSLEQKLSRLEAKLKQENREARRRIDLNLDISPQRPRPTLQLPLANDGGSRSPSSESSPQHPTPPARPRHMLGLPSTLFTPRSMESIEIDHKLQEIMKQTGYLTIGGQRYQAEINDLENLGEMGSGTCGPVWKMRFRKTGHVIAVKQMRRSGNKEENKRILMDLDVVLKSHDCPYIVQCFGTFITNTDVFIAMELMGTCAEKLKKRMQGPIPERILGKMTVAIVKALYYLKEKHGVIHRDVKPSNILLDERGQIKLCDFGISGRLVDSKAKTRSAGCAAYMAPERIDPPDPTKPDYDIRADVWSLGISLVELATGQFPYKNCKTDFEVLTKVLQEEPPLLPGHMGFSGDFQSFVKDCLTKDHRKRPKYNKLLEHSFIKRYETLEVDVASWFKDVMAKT
The assay is described as follows: Kinase assay of immunoprecipitated FLAG-JNKK2/MKK7 (GST-JNK1 substrate) pre-incubated with recombinant Gadd45β proteins or peptides. As to conditions: for inhibition of JNKK2/MKK7 activity (GST-JNK1 phosphorylation): FLAG-JNKK2 from 293 cells, 10 min pre-incubation with increasing concentrations of recombinant protein. It counts as biochemical. The protocol:
Next, the functional consequences, in vitro, of the physical interactions of Gadd45β with kinases in the JNK pathway were assessed. Murine and human, full-length Gadd45J3 proteins were purified from E. coli as GST-Gadd45β and His6-tagged Gadd45β (His6 disclosed as SEQ ID NO: 46), respectively, according to standard procedures. Prior to employing these proteins in in vitro assays, purity of all recombinant polypeptides was assured by >98%, by performing Coomassie blue staining of SDS polyacrylamide gels. Then, the ability of these proteins, as well as of control GST and His6-EF3 (His6 disclosed as SEQ ID NO: 46)proteins, to inhibit kinases in the JNK pathways was monitored in vitro. FLAG-tagged JNKK2, JNKK1, MKK3, and ASK1 were immunoprecipitated from transiently transfected 293 cells using anti-FLAG antibodies and pre-incubated for 10 minutes with increasing concentrations of recombinant proteins, prior to the addition of specific kinase substrates (i.e. GST-JNK1 with JNKK1 and JNKK2; GST-p38[…] with MKK3; GST-JNNK1 or GST-JNKK2 with ASK1). […] These findings indicate that, upon binding to Gadd45β, JNKK2 is effectively inactivated.
A question was whether Gadd45β inhibited active MKK7, in vitro. FLAG-MKK7 was immunoprecipitated from TNFα-treated or untreated 293 cells, and kinase assays were performed in the presence of purified His6-Gadd45β (His6 disclosed as SEQ ID NO: 46), GST-Gadd45β, or control proteins (FIG. 28d; see also FIG. 28g). […] Consistent with the in vivo findings (FIG. 27), the inhibitory activity of Gadd45β was specific. […] Indeed, the effects of Gadd45β on MKK7 phosphorylation by TNFα may be due inhibition of the MKK7 ability to auto-phoshorylate and/or to serve as substrate for upstream kinases. Altogether, the findings identify MKK7 as a target of Gadd45β, and of NF-[…]B, in the JNK cascade. Of interest, MKK7 is a selective activator of JNK, and its ablation abolishes JNK activation by TNFα. Thus, blockade of MKK7 is sufficient on its own to explain the effects of Gadd45β on JNK signaling—i.e. its specific and near-complete suppression of this signaling.
Active MKK7 was immunoprecipitated from TNFα-activated 293 cells and MKK7 kinase assays were performed using GST-JNK1 substrates and pure recombinant Gadd45β polypeptides (FIG. 37B; a schematic diagram representing the Gadd45βpolypeptides used is shown in FIG. 37A). […] MKK7 kinase assays were performed as in FIG. 37B, except that pure synthetic Gadd45, peptides (whose sequences are shown in FIG. 37C) were used instead of pure recombinant Gadd45β proteins. The amino acid region between amino acids 58 and 77 of Gadd45βis used for the Gadd45β-mediated inhibition of MKK7. […]

Entries after “also recorded” stand apart in the source; their conditions may differ.

B1: Gadd45β: purified recombinant His6-tagged Gadd45β protein; also used generically for the recombinant Gadd45β proteins (protein, UniProt O75293 1-160, looked up)
Growth arrest and DNA …: MTLEELVACDNAAQKMQTVTAAVEELLVAAQRQDRLTVGVYESAKLMNVDPDSVVLCLLAIDEEEEDDIALQIHFTLIQSFCCDNDINIVRVSGMQRLAQLLGEPAETQGTTEARDLHCLLVTNPHTDAWKSHGLVEVASYCEESRGNNQWVPYISLQER
modifications: His6 tag
notes: purified recombinant His6-tagged Gadd45β protein; also used generically for the recombinant Gadd45β proteins
Take B1: where the note is “in vitro”, the JNKK2 auto-phosphorylation entry is “inhibited”.

B2: His6-Gadd45β: human full-length Gadd45β purified from E. coli as His6-tagged protein (protein, UniProt O75293 1-160, looked up)
chain: MTLEELVACDNAAQKMQTVTAAVEELLVAAQRQDRLTVGVYESAKLMNVDPDSVVLCLLAIDEEEEDDIALQIHFTLIQSFCCDNDINIVRVSGMQRLAQLLGEPAETQGTTEARDLHCLLVTNPHTDAWKSHGLVEVASYCEESRGNNQWVPYISLQER
modifications: full-length His6 tag
notes: human full-length Gadd45β purified from E. coli as His6-tagged protein
With B2, the “inhibition of JNKK2/MKK7 activity (GST-JNK1 phosphorylation)” value is recorded as “blocked GST-JNK1 phosphorylation by MKK7, in a dose-dependent manner; also recorded: effectively suppressed”.

B3: GST-Gadd45β: full-length murine Gadd45β directly fused to GST, purified from E. coli (protein)
chain: MTLEELVASDNAVQKMQAVTAAVEQLLVAAQRQDRLTVGVYEAAKLMNVDPDSVVLCLLAIDEEEEDDIALQIHFTLIQSFCCDNDIDIVRVSGMQRLAQLLGEPAETLGTTEARDLHCLLVTNCHTDSWKSQGLVEVASYCEESRGNNQWVPYISLEER
modifications: left off: a dimerising Fc or GST
notes: full-length murine Gadd45β directly fused to GST, purified from E. coli
Regarding B3, the “inhibition of JNKK2/MKK7 activity (GST-JNK1 phosphorylation)” value is on record as “blocked GST-JNK1 phosphorylation by MKK7, in a dose-dependent manner; also recorded: effectively suppressed”.

The values are drawn from patent US7326418B2, “Identification of novel factors that block programmed cell death or apoptosis by targeting JNK” (University of Chicago, priority 2001, dated 2008).
